What was measured:
[1] = target: the molecule itself; experiment: SEC titration of the C4 hub alone (normalised A230, concentrations per monomer) and negative-stain EM; self-association of hubs
206B62-2 = target: T1, 206B62-2; experiment: SEC binding assay (Superdex 200, normalised A230) of A, B and the mixture AB
T1 chain: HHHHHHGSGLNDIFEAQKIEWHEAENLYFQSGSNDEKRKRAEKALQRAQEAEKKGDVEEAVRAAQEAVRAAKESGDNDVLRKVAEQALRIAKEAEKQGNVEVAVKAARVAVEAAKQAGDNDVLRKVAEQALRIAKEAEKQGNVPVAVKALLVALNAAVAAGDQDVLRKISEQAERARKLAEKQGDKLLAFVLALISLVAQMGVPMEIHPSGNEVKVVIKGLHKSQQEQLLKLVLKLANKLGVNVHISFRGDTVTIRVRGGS
Procedure: (§1) Complexes and individual components were diluted in 20 mM Tris pH 8.0, 100 mM NaCl. After o/n equilibration of the mixtures at room temperature or 4 degrees C., 500 ul of sample was injected onto a Superdex™ 200 10/300 increase GL (dimers, linear assemblies) or Superose™ 6 increase 10/300 GL (symmetric assemblies) (all columns from GE healthcare) using the absorbance at 230 nm or 473 nm (for GFP tagged components) as read-out. Dimers were mixed at monomer concentrations of 5 μM or higher. Trimer and ABCD tetramer mixtures contained 5 μM of the bivalent connector, and 7.5 μM of each terminal cap (lower absolute concentrations with the same ratios were used for some trimers). ABCA tetramer mixtures contained 5 μM per bivalent connector and 15 μM terminal cap. The hexamer mixture contained 3 μM of components C and D, 3.6 μM of B and E, and 4.4 μM of A and F. The branched assembly shown in FIG. 4A contained 2.8 μM of the trivalent connector and 4 μM of each cap. For the exchange experiment shown in FIG. 5A, the ABC trimer was preincubated at concentrations of 6 μM B and 9 μM each of A and C. C′ was then added to reach a final concentration of 2 μM B, 3 μM each of A and C, and 6 μM C′.

LHD206 B62-1 = target: T2, LHD206 B62-1; experiment: as above
T2 single chain, LHD206 chain B fused to DHR62: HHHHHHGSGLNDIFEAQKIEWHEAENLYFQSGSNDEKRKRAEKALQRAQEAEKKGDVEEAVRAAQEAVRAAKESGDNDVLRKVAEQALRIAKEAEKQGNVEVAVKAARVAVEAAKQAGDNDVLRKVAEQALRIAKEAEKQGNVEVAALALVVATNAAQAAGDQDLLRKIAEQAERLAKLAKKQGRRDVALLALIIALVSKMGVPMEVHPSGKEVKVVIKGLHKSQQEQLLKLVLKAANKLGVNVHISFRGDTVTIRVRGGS
Procedure: as §1

DF206 = target: T3, DF206; experiment: SEC of mixed components; trimer listed in Table 6
T3 construct: Bivalent connector
T3 chain: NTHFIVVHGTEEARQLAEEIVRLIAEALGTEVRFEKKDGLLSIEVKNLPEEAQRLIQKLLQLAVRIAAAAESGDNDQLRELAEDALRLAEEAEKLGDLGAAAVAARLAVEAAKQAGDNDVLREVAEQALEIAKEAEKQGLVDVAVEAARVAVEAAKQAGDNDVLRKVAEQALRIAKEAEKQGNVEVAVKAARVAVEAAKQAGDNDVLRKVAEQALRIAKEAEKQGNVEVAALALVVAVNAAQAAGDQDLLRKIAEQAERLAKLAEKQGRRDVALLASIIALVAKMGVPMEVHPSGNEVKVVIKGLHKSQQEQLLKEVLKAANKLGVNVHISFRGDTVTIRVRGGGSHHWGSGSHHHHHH

101B82 = target: T4, 101B82; experiment: SEC binding assay (Superdex 200, normalised A230) of A, B and the mixture AB
T4 chain: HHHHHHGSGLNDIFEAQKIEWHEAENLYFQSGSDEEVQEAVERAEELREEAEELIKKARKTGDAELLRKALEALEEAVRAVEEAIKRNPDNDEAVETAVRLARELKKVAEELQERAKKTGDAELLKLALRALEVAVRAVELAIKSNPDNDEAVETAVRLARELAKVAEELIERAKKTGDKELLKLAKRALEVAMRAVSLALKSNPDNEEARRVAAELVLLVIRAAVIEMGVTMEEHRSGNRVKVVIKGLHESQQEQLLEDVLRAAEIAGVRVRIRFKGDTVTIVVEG
Procedure: as §1

101B14 = target: T5, 101B14; experiment: as above
T5 construct: also called LHD101 B14
T5 single chain, LHD101 chain B fused to DHR14: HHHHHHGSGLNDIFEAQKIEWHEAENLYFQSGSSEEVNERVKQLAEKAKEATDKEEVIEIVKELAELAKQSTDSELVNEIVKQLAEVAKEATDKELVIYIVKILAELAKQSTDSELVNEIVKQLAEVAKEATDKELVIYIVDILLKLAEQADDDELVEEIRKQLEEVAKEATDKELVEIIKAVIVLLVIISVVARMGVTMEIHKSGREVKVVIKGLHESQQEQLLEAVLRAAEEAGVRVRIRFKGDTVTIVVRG
Procedure: as §1

101B4 = target: T6, 101B4; experiment: as above
T6 construct: also called LHD101B4
T6 chain: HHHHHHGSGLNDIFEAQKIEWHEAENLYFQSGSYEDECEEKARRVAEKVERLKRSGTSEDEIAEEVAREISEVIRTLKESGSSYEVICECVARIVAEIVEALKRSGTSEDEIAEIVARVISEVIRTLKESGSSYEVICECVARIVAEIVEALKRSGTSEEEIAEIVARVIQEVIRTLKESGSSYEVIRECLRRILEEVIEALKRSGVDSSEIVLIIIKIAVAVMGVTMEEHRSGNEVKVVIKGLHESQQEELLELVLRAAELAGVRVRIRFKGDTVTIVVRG
Procedure: as §1

101B62 = target: T7, 101B62; experiment: as above
T7 construct: also called LHD101B62
T7 chain: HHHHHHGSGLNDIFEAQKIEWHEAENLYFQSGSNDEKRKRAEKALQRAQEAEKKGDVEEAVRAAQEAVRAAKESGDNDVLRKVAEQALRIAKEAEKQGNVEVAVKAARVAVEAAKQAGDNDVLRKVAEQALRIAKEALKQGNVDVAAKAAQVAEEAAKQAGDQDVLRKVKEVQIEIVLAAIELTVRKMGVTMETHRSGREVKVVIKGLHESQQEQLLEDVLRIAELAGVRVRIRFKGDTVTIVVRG
Procedure: as §1

LHD101 B8 = target: T8, LHD101 B8; experiment: as above
T8 single chain, LHD101 chain B fused to DHR8: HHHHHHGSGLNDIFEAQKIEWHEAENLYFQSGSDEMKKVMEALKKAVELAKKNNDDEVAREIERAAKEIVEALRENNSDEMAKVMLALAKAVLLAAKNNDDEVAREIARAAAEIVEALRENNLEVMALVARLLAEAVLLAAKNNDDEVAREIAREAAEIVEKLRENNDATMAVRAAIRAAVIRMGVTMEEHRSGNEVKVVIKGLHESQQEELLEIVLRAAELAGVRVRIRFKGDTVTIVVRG
Procedure: as §1

LHD101 chainB = target: T9, LHD101 chainB; experiment: BLI steady-state titration, biotinylated unfused LHD101B on a streptavidin sensor
T9 construct: also called LHD101B
T9 chain: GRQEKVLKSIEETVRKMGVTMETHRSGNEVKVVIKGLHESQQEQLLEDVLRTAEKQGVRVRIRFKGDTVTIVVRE
Procedure: (§2) Biolayer interferometry experiments were performed on an OctetRED96 BLI system (ForteBio, Menlo Park, CA). Streptavidin coated biosensors were first equilibrated for at least 10 minutes in Octet buffer (10 mM HEPES pH 7.4, 150 mM NaCl, 3 mM EDTA, 0.05% Surfactant P20) supplemented with 1 mg/ml Bovine Serum Albumin (SigmaAldrich). Enzymatically biotinylated designs were immobilized onto the biosensors by dipping the biosensors into a solution with 10-50 nM protein for 30-120 s. This was followed by dipping in fresh octet buffer to establish a baseline for 120 s. Titration experiments were performed at 25° C. while rotating at 1,000 r.p.m. Association of designs was allowed by dipping biosensors in solutions containing designed protein diluted in octet buffer until equilibrium was approached followed by dissociation by dipping the biosensors into fresh buffer solution in order to monitor the dissociation kinetics. Steady-state and global kinetic fits were performed using the manufacturer's software (Data Analysis 9.1) assuming a 1:1 binding model.

[2] = target: the molecule itself; experiment: SEC titration of the protomer alone at several injection concentrations (Superdex 200, normalised A230); self-association
284B = target: T10, 284B; experiment: SEC binding assay (Superdex 200, normalised A230) of A, B and the mixture AB
T10 construct: also called LHD284 B; LHD284 chainB
T10 chain: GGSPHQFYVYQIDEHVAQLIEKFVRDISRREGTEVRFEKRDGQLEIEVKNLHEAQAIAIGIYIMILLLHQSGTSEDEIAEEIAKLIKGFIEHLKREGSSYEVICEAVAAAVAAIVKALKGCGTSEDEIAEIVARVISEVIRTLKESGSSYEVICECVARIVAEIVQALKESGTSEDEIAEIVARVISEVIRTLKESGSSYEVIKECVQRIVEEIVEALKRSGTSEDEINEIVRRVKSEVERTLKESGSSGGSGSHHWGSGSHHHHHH
Procedure: as §1

LHD29 chainB [3] = target: T11, LHD29 chainB; experiment: BLI, steady state fit
T11 construct: also called LHD29B; 29B
T11 chain: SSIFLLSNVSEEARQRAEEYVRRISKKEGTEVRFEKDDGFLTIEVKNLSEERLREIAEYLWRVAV
Procedure: as §2

[4] = target: the molecule itself; experiment: BLI conditions (self-association)
LHD29 chainB [5] = target: T11, LHD29 chainB; experiment: BLI, global kinetic fit, 1:1 model
Procedure: as §2

B1: C4-Hub (designed binder)
chain: GNTHFIVVHGSEDAAQLAEELVREISKKEGTEVRFEKKDGLLSIEVKNLSEERQREIQKALQLVQDVANAERVVRERPGSNLAKKALEIILRAAEELAKLDLKASLKAAVRAAEKVVREQPGSELAKKALEIILRAAEELAKLPDPEALHEAVRAAEHVVRSQPGSEAAKEALRIIQEAAELLKESPDPTAIIRAARALLKIARTTGDEEAAKEAIEAAKKAADLARERGDDELVCEALALLVAAQVELLKQQGTSAVEIAKIVARVISEVIRTLKEKGSSYEVICECVARIVAEIVEALKRSGTSAAIIALIVALVISEVIRTLKESGSSFEVILECVIRIVLEIIEALKRSGTSEQDVMLIVMAVLLVVLATLQLSGSGSLEHHHHHH
notes: C4-symmetric homo-oligomeric hub carrying LHD274B; also called C4 53; C4-symmetric hub
[1]
  binding result: binds

B2: 206A54 (designed binder)
chain: HHHHHHGSGLNDIFEAQKIEWHEAENLYFQSGSTEDERRELEKVARKAIEAAREGNTDEVREQLQRALEIARESGTTEAVKLALEVVARVAIEAARRGNTDAVREALEVALEIARESGTTEAVKLALEVVARVAIEAARRGNTDAVREALAVAVKIALKSGTEEAFRLAKEVIKRVSDEAKKQGNEDAVKEAESFDAAAELILSLLKLFRELHERGTEIVVEVHINGRKTEIEVQGIDKRLLQIILEVIIEEIAREGPDKVEVNVHSGGQTWTFRYGGS
206B62-2
  binding result: binds
LHD206 B62-1
  binding result: binds
DF206
  binding result: binds

B3: 101A21 (designed binder)
chain: HHHHHHGSGLNDIFEAQKIEWHEAENLYFQSGSSEKEKVEELAQRIREQLPDTELAREAQELADEARKSDDSEALKVVYLALRIVQQLPDTELAREALELAKEAVKSTDSEKLKVVYLALRVVQQLPDTEEARKALEIAKEAVKADAQILLAIARAVLKMGVEMEVHPSGNEVKVVIKGLHIKQQRQLYRDVREAAKKAGVEVEIEVEGDTVTIVVRE
101B82
  binding result: binds
101B14
  binding result: binds
101B4
  binding result: binds
101B62
  binding result: binds
LHD101 B8
  binding result: binds
LHD101 chainB
  binding result: binds
[2]
  binding result: no binding

B4: 284A82 (designed binder)
chain: HHHHHHGSGLNDIFEAQKIEWHEAENLYFQSGSDEEVQEAVERAEELREEAEELIKKARKTGDAELLRKALEALEEAVRAVEEAIKRNPDNDEAVETAVRLARELKKVAEELQERAKKTGDAELLKLALRALEVAVRAVELAIKSNPDNDEAVETAVRLAKELLKVAILLAKRAQETGDKELEKLARRALEVAKRAVELAIKSNPDNKEARILKLLLELAELLIELALRGTIIIVEVHINGERQTKYLILAPVEELLKHLERIEEKIKREGASEVEVKVTSGGTTWTFNIKGS
notes: also called LHD284 A DHR82 N
284B
  binding result: binds

B5: LHD29 chainA (designed binder)
chain: TWQWVLINISEEARQRIEEYVRRISKKEGTEVHFEKDDGVLHIRVKNLHEKRAREIHEYAKRVIL
notes: also called LHD29A; 29A
LHD29 chainB [3]
  Kd: 310 nM
[4]
  binding result: binds
LHD29 chainB [5]
  Kd: 985 nM
  koff: 0.00068 s⁻¹
  kon: 690 M⁻¹ s⁻¹

— patent publication US20240368233A1 (University of Washington, published 2024)
